Results on four substances are retold here after patent US6329500.

The target of assay [1] is transforming growth factor-β1 (TGF-β1). The assay is described as follows: 0.1 nM ^125 I-TGF-β1 in α2 M-MA-coated microtiter wells, 1 h.
Assay [2] deals with transforming growth factor-β2 (TGF-β2). The assay is described as follows: 0.1 nM ^125 I-TGF-β2 in α2 M-MA-coated microtiter wells, 1 h.
The target in assay [3] is transforming growth factor-β1 (TGF-β1). Description: solution-phase competitor of ^125 I-TGF-β1 binding to immobilized α2 M-MA.
Assay [4] deals with methylamine-modified human α2 -macroglobulin (α2 M-MA) (human) (UniProt P01023). Description: ^125 I-TGF-β1 in α2 M-MA-coated wells with 0.2 µM unlabeled TGF-β.
Assay [5] has as its target GST-α2 M peptide-fusion protein FP3 (human) (UniProt P01023). The assay is described as follows: ligand blot; ^125 I-TGF-β1 on PVDF-immobilized FP3 with 0.2 µM unlabeled TGF-β1.
Assay [6] addresses methylamine-modified human α2 -macroglobulin (α2 M-MA) (human) (UniProt P01023). Description: ^125 I-TGF-β2 in α2 M-MA-coated wells with 0.2 µM unlabeled TGF-β.
Assay [7] has as its target GST-α2 M peptide-fusion protein FP3 (human) (UniProt P01023). Description: ligand blot; ^125 I-TGF-β2 on PVDF-immobilized FP3 with 0.2 µM unlabeled TGF-β2.

Take “methylamine-modified human α2 -macroglobulin (α2 M-MA) (from UniProt P01023)”: the figures for the amount of ^125 I-TGF-β bound in assay [1] and in assay [2] were 3.4 fmol and 2.6 fmol, respectively.
What is called IC50 is the concentration at which inhibition is half-maximal. Substance “monomeric human α2 -macroglobulin (from UniProt P01023)” yielded a concentration for half-maximal inhibition (IC50) in assay [3] of 360 nM.
In the case of “transforming growth factor-β1 (TGF-β1) (ligand)”, in assay [4], the percent decrease of binding was over 75%. In assay [5], this substance gave a percent inhibition of binding of 72%.
In the case of “transforming growth factor-β2 (TGF-β2) (ligand)”, the percent decrease of binding in assay [6] is over 75%. Further, the percent inhibition of binding in assay [7] amounted to 90%.
